Measured values as given in patent US20150086574A1 (CELLERANT THERAPEUTICS, published 2015).

Tests used:
[1] = biological target: T cell Immunoglobulin- and Mucin domain-containing molecule 3 (TIM3), human, on cells (human) (UniProt Q8TDQ0); assay: flow cytometry, PBMCs of AML patient 2, CD34+CD38- population
[2] = biological target: T cell Immunoglobulin- and Mucin domain-containing molecule 3 (TIM3), human, on cells (human) (UniProt Q8TDQ0); assay: flow cytometry, PBMCs of AML patient 3, Blast population
[3] = biological target: T cell Immunoglobulin- and Mucin domain-containing molecule 3 (TIM3), human, on cells (human) (UniProt Q8TDQ0); assay: flow cytometry, bone marrow cells of AML patient 2, CD34+CD38- population
[4] = biological target: T cell Immunoglobulin- and Mucin domain-containing molecule 3 (TIM3), human, on cells (human) (UniProt Q8TDQ0); assay: flow cytometry, PBMCs of AML patient 2, Blast population
[5] = biological target: T cell Immunoglobulin- and Mucin domain-containing molecule 3 (TIM3), human, on cells (human) (UniProt Q8TDQ0); assay: cell binding (flow cytometry), Daudi cells
[6] = biological target: T cell Immunoglobulin- and Mucin domain-containing molecule 3 (TIM3), human, on cells (human) (UniProt Q8TDQ0); assay: cell binding (flow cytometry), Pfeiffer cells
[7] = biological target: T cell Immunoglobulin- and Mucin domain-containing molecule 3 (TIM3), human, on cells (human) (UniProt Q8TDQ0); assay: flow cytometry, bone marrow cells of AML patient 2, Blast population
[8] = biological target: T cell Immunoglobulin- and Mucin domain-containing molecule 3 (TIM3), human, on cells (human) (UniProt Q8TDQ0); assay: cell binding (flow cytometry), CMK cells
[9] = biological target: T cell Immunoglobulin- and Mucin domain-containing molecule 3 (TIM3), human, on cells (human) (UniProt Q8TDQ0); assay: flow cytometry; cells not named in the table (Example 5 uses Pfeiffer cells)
[10] = biological target: T cell Immunoglobulin- and Mucin domain-containing molecule 3 (TIM3), human, on cells (human) (UniProt Q8TDQ0); assay: flow cytometry, PBMCs of AML patient 1, CD34+CD38- population
[11] = biological target: T cell Immunoglobulin- and Mucin domain-containing molecule 3 (TIM3), human, on cells (human) (UniProt Q8TDQ0); assay: flow cytometry, PBMCs of AML patient 1, Blast population
[12] = biological target: T cell Immunoglobulin- and Mucin domain-containing molecule 3 (TIM3), human, on cells (human) (UniProt Q8TDQ0); assay: flow cytometry, CD34+ cells from a set of AML samples
[13] = biological target: T cell Immunoglobulin- and Mucin domain-containing molecule 3 (TIM3), human, on cells (human) (UniProt Q8TDQ0); assay: flow cytometry, PBMCs of AML patient 3, CD34+CD38- population
[14] = biological target: T cell Immunoglobulin- and Mucin domain-containing molecule 3 (TIM3), human, on cells (human) (UniProt Q8TDQ0); assay: cell-based or functional assay
[15] = biological target: T cell Immunoglobulin- and Mucin domain-containing molecule 3 (TIM3), human, on cells (human) (UniProt Q8TDQ0); assay: flow cytometry, PBMCs of AML patient 4, Blast population
[16] = biological target: T cell Immunoglobulin- and Mucin domain-containing molecule 3 (TIM3), human, on cells (human) (UniProt Q8TDQ0); assay: flow cytometry, bone marrow cells of AML patient 1, Blast population
[17] = biological target: T cell Immunoglobulin- and Mucin domain-containing molecule 3 (TIM3), human, on cells (human) (UniProt Q8TDQ0); assay: flow cytometry, PBMCs of AML patient 5, Blast population
[18] = biological target: T cell Immunoglobulin- and Mucin domain-containing molecule 3 (TIM3), human, on cells (human) (UniProt Q8TDQ0); assay: flow cytometry, PBMCs of AML patient 4, CD34+CD38- population
[19] = biological target: T cell Immunoglobulin- and Mucin domain-containing molecule 3 (TIM3), human, on cells (human) (UniProt Q8TDQ0); assay: flow cytometry, bone marrow cells of AML patient 1, CD34+CD38- population
[20] = biological target: T cell Immunoglobulin- and Mucin domain-containing molecule 3 (TIM3), human, on cells (human) (UniProt Q8TDQ0); assay: flow cytometry, PBMCs of AML patient 5, CD34+CD38- population

Sequence of T cell Immunoglobulin- and Mucin domain-containing molecule 3 (TIM3), human, on cells (human) (Q8TDQ0 22-301 limits assumed): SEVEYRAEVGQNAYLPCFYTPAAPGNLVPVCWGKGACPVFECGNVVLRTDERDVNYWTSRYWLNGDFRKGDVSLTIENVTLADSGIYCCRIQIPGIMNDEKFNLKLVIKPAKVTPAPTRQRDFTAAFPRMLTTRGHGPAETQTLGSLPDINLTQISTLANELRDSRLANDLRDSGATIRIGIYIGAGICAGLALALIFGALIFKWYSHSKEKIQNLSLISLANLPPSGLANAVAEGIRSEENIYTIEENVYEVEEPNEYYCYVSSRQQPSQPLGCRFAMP

Row | Molecule | percent binding [1] [%] | percent binding [2] [%] | percent binding [3] [%] | percent binding [4] [%] | percentage of cell binding [5] [%] | percentage of cell binding [6] [%] | percent binding [7] [%] | % Positive for TIM3 [9] [%] | GeoMean (Intensity of TIM3 binding) [9] | percent binding [10] [%] | percent binding [11] [%] | percent binding [13] [%] | other results
1 | TIM3 2E2 (antibody) | 64.8 | 1.01 | 1.6 | 59.3 | 90 | 97 | 1.8 | 89.9 | 198 | 3.26 | 2.92 | 0.17 | Geomean [6]: 308; percentage of cell binding [8]: 19%; Positive/total (AML samples whose CD34+ cells were bound) (of 14 samples) [12]: 0
2 | 8.16C10 (antibody, IgG1, V domains shown) VH: QIQLQQSGPELVKPGASVKISYKASGYTFTDYYINWVKQKPGQGLEWIGWIYPGSGITKYNEKFKGKATLTVDSSSSTAYMQLSSLTSEDTAVYFCAIYGYDGGYAMDYWGQGTSVTVSS VL: QIVLTQSPAIMSASPGEKVTLTCSASSSVSSSYLYWYQQKPGSSPKLWIYSTSNLASGVPARFSGGGSGTSYSLTISSMEAEDAASYFCHQWSTYPYTFGGGTKLEIKR | 76.4 | 0.83 | 1.47 | 68.1 | 67 | 85 | 2.61 | 92.5 | 83.8 | 4.67 | 3.13 | 0.49 | IFN-gamma release from activated CD4+ T cells (ELISA), antibody at 5 ug/ml (fold reduction) [14]: > 2; IL-6 release from activated CD4+ T cells (ELISA), antibody at 5 ug/ml (fold reduction) [14]: > 2; percent of antibody internalized after 20 minutes, Pfeiffer cells [14]: > 50%; percent binding [15]: 78%; percent binding [16]: 55.6%; percent binding [17]: 25%; percent binding [18]: 87%; percent binding [19]: 19.2%; percent binding [20]: 25%
